From patent US20220073646A1 (Hoffmann-La Roche, published 2022)

Legend:
[1] = molecular target: T1, human fibroblast activation protein (huFAP) on cells (human, UniProt Q12884 1-760); assay: flow cytometry, NIH/3T3-huFAP clone 39 cells
T1 construct: also called NIH/3T3-huFAP clone 39; NIH/3T3-huFAP clone 19

[2] = molecular target: T2, cynomolgus OX40 on activated cynomolgus PBMC (cynomolgus, UniProt P43489 29-214 (human entry)); assay: flow cytometry, activated cynomolgus CD4 T cells
T2 construct: whole, on cells
T2 chain: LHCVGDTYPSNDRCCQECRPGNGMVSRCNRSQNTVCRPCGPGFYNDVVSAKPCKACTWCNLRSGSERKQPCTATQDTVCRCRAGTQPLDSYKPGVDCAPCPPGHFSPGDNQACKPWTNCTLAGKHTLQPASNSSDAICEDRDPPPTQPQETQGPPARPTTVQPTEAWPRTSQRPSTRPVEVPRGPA
Protocol: Centrifugation was performed at 520×g, without brake at room temperature for 30 minutes. Adjacent centrifugation at 150×g at room temperature for 15 minutes was performed to reduce platelets count followed by several centrifugation steps with 400×g at room temperature for 10 minutes to wash PBMC with sterile DPBS.
Then, plates were washed four times with 200 μL/well 4° C. FACS buffer. […] Plates where washed twice with 200 μL/well 4° C.

[3] = molecular target: recombinant cynomolgus OX40 Fc(kih) (cynomolgus, UniProt P0DOX5 223-449 = IgG part, biotin on C-terminal Avi tag where used biotinylated); assay: SPR avidity format, antigen on SA chip
Protocol: (§1) All SPR experiments were performed on a Biacore T200 at 25° C. with HBS-EP as running buffer (0.01 M HEPES pH 7.4, 0.15 M NaCl, 3 mM EDTA, 0.005% Surfactant P20, Biacore, Freiburg/Germany).
Immobilization levels up to 800 resonance units (RU) were used.

[4] = molecular target: T3, human OX40 on cells (human, UniProt P43489 29-277); assay: cell-based or functional assay
T3 sequence: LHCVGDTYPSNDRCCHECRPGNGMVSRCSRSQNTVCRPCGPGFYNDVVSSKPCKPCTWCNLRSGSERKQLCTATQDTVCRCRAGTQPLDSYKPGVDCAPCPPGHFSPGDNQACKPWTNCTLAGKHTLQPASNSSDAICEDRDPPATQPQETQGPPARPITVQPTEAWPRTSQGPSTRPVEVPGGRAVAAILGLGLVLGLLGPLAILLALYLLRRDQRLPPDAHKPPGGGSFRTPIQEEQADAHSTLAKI

[5] = molecular target: T3, human OX40 on cells; assay: cell-based or functional assay; remark: listed apart in the source
[6] = molecular target: T4, recombinant human OX40 His (human); assay: SPR, captured IgG, OX40 His analyte
T4 construct: ectodomain with avi and hexahistidine tag; also called human Ox40 avi His
T4 chain: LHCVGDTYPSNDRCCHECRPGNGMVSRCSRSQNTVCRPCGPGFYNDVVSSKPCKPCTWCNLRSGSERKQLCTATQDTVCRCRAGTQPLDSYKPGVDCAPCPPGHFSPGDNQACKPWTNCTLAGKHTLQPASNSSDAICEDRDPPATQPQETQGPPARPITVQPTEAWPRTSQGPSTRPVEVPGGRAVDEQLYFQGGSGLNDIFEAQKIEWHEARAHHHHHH
Protocol: as §1
Setup 2) Anti-human Fc antibody (Biacore, Freiburg/Germany) was directly coupled on a CM5 chip at pH 5.0 using the standard amine coupling kit (Biacore, Freiburg/Germany). The immobilization level was approximately 8000 RU. […] The dissociation was monitored for 120 seconds. Bulk refractive index differences were corrected for by subtracting the response obtained on reference flow cell.

[7] = molecular target: T5, human 4-1BB on cells (human, UniProt Q07011 24-255); assay: flow cytometry, activated human CD8+ T cells
T5 construct: also called HeLa-hu4-1BB-NF-kB-luc clone 26
Protocol: (§2) Plates were centrifuged 4 minutes with 400×g at 4° C. and supernatant was discarded. […] Afterwards cells were washed once with 200 μL/well cold FACS buffer (DPBS supplied with 2% (v/v) FBS, 5 mM EDTA pH8 (Amresco, Cat. No. E177) and 7.5 mM sodium azide (Sigma-Aldrich S2002)). […] Cells were washed four times with 200 μL/well 4° C.
Cells were washed twice with 200 μL FACS buffer/well and fixated by resuspending in 50 μL/well DPBS containing 1% Formaldehyde (Sigma, HT501320-9.5L). Cells were acquired the same or next day using 3-laser MACSQuant Analyzer 10 (Miltenyi Biotech). Gates were set on CD8⁺ and CD4⁺ T cells and the geo mean of fluorescence intensity (MFI) of the secondary detection antibody was used to analyze binding of primary antibodies. Using Graph Pad Prism (Graph Pad Software Inc.) data was baselined by subtracting the blank values (no primary antibody added) and the EC₅₀ values were calculated using non-linear regression curve fit (robust fit).

[8] = molecular target: T1, human fibroblast activation protein …; assay: flow cytometry, WM-266-4 and NIH/3T3-huFAP clone 19
[9] = molecular target: T5, human 4-1BB on cells; assay: flow cytometry, activated human CD8 T cells
Protocol: as §2
Cells were washed twice with 200 μL FACS buffer/well and fixated by resuspending in 50 μL/well DPBS containing 1% Formaldehyde (Sigma, HT501320-9.5L). Cells were acquired the same or next day using a 3-laser Canto II (BD Bioscience with DIVA software) or a 5-laser Fortessa (BD Bioscience with DIVA software) or 3-laser MACSQuant Analyzer 10 (Miltenyi Biotech). Gates were set on CD8⁺ and CD4⁺ T cells and the median fluorescence intensity (MFI) or geo mean of fluorescence intensity of the secondary detection antibody was used to analyze binding of primary antibodies. Using Graph Pad Prism (Graph Pad Software Inc.) data was baselined by subtracting the blank values (no primary antibody added) and the EC50 values were calculated using non-linear regression curve fit (robust fit).

[10] = molecular target: T6, recombinant human 4-1BB Fc(kih) (human, UniProt P0DOX5 223-449 = IgG part, biotin on C-terminal Avi tag where used biotinylated); assay: SPR, captured IgG, 4-1BB Fc(kih) analyte
T6 construct: also called hu4-1BB; biotinylated human 4-1BB
Protocol: as §1
Anti-human Fab antibody (Biacore, Freiburg/Germany) was directly coupled on a CM5 chip at pH 5.0 using the standard amine coupling kit (Biacore, Freiburg/Germany). The immobilization level was approximately 7500 RU. […] The dissociation was monitored for 120 seconds. Bulk refractive index differences were corrected for by subtracting the response obtained on reference flow cell.

[11] = molecular target: T7, hu4-1BB-SNAP fusion protein on Hek293 EBNA cells (human, UniProt Q07011 24-255, labeled with the FRET donor Terbium); assay: cell FRET competition against d2-labeled anti-4-1BB tracer, 4 h
T7 construct: not shown: SNAP tag

[12] = molecular target: T8, mouse 4-1BB on activated mouse splenocytes (mouse, UniProt P20334 24-256); assay: flow cytometry, activated mouse T cells
Protocol: (§3) Cells were incubated for 30 min at 4° C., washed twice with 200 μL/well FACS-buffer and resuspended for fixation with 50 μL/well DPBS containing 1% (v/v) formaldehyde. The next day cells were resuspended in 200 μL/well FACS buffer and acquired using the 2-laser Cantoll (BD Bioscience with DIVA software) or 5-laser Fortessa (BD Bioscience with DIVA software). Gates were set on CD8⁺ and CD4⁺ T cells and the median fluorescence intensity (MFI) of the secondary detection antibody was used to analyze binding of primary antibodies. Using Graph Pad Prism (Graph Pad Software Inc.) data was baselined by subtracting the blank values (no primary antibody added) and the EC₅₀ values were calculated using non-linear regression curve fit (robust fit).

[13] = molecular target: T5, human 4-1BB on cells; assay: cell-based or functional assay
[14] = molecular target: recombinant cynomolgus 4-1BB Fc(kih) (cynomolgus, UniProt P0DOX5 223-449 = IgG part, biotin on C-terminal Avi tag where used biotinylated); assay: SPR, captured IgG, cyno 4-1BB Fc(kih) analyte
Protocol: as §1
Anti-human Fab antibody (Biacore, Freiburg/Germany) was directly coupled on a CM5 chip at pH 5.0 using the standard amine coupling kit (Biacore, Freiburg/Germany). The immobilization level was approximately 9000 RU.

[15] = molecular target: T9, cynomolgus 4-1BB on activated cynomolgus PBMC (cynomolgus, UniProt Q07011 24-255 (human entry)); assay: flow cytometry, activated cynomolgus CD8 T cells
T9 chain: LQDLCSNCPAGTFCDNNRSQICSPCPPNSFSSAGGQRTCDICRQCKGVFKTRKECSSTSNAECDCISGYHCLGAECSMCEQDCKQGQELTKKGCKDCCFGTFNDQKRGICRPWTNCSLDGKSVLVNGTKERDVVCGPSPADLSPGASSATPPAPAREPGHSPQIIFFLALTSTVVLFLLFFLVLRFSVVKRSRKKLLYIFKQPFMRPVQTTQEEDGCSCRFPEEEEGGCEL
Protocol: (§4) Cells were washed twice with FACS buffer and resuspended in 100 μL/well FACS buffer supplied with 0.2 μg/mL DAPI to discriminated dead from living cells. Cells were immediately acquired using a 5-laser Fortessa (BD Bioscience with DIVA software). Gates were set on CD8⁺ and CD4⁺ T cells and the median fluorescence intensity (MFI) of the secondary detection antibody was used to analyze binding of primary antibodies. Using Graph Pad Prism (Graph Pad Software Inc.) data was baselined by subtracting the blank values (no primary antibody added) and the EC₅₀ values were calculated using non-linear regression curve fit (robust fit).

[16] = molecular target: T9, cynomolgus 4-1BB on activated …; assay: flow cytometry, activated cynomolgus CD4 T cells
Protocol: as §4

[17] = molecular target: T8, mouse 4-1BB on activated mouse …; assay: flow cytometry, activated murine CD8 T cells
Protocol: as §3

[18] = molecular target: T10, recombinant murine 4-1BB Fc(kih) (murine, UniProt P0DOX5 223-449 = IgG part, biotin on C-terminal Avi tag where used biotinylated); assay: SPR avidity format, murine 4-1BB Fc(kih) on SA chip
T10 construct: also called mu4-1BB
Description: (§5) Immobilization levels up to 100 resonance units (RU) were used. […] Complex dissociation was monitored for 220 seconds. Bulk refractive index differences were corrected for by subtracting the response obtained in a reference flow cell, where no protein was immobilized.

[19] = molecular target: T6, recombinant human 4-1BB Fc(kih); assay: SPR
Protocol: as §1, §5

[20] = molecular target: T11, recombinant murine 4-1BB AcTEV (murine, UniProt P20334 24-187); assay: SPR, captured IgG, murine 4-1BB AcTEV analyte
T11 construct: murine 4-1BB Fc(kih) cleaved with AcTEV protease, Fc removed
T11 sequence: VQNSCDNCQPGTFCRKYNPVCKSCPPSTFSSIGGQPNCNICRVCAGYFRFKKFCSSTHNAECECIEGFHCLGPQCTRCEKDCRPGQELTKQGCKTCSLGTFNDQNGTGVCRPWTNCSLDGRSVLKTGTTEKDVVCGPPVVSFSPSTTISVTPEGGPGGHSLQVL
Protocol: as §1
Anti-human Fc antibody (Biacore, Freiburg/Germany) was directly coupled on a CM5 chip at pH 5.0 using the standard amine coupling kit (Biacore, Freiburg/Germany). The immobilization level was about 7500 RU. […] The dissociation was monitored for 120 seconds. Bulk refractive index differences were corrected for by subtracting the response obtained on reference flow cell.

[21] = molecular target: T5, human 4-1BB on cells; assay: flow cytometry, activated human T cells
[22] = molecular target: T8, mouse 4-1BB on activated mouse …; assay: flow cytometry, activated murine CD4 T cells
Protocol: as §3

[23] = molecular target: T12, recombinant cynomolgus GITR Fc(kih) (cynomolgus, UniProt P0DOX5 223-449 = IgG part, biotin on C-terminal Avi tag where used biotinylated); assay: SPR ProteOn XPR36, biotinylated GITR-Fc on NLC chip, Fab analyte
T12 construct: also called cy GITR-Fc
Protocol: (§6) Immobilization of antigens (ligand): Recombinant antigens were diluted with PBST (10 mM phosphate, 150 mM sodium chloride pH 7.4, 0.005% Tween 20) to 10 μg/ml, then injected at 30 μl/minute in vertical orientation. Injection of analytes: For ‘one-shot kinetics’ measurements, injection direction was changed to horizontal orientation, two-fold dilution series of purified Fab were injected simultaneously along separate channels 1-5, with association times of 200 s, and dissociation times of 240 s, respectively. Buffer (PBST) was injected along the sixth channel to provide an “in-line” blank for referencing. Association rate constants (kon) and dissociation rate constants (koff) were calculated using a simple one-to-one Langmuir binding model in ProteOn Manager software by simultaneously fitting the association and dissociation sensorgrams. The equilibrium dissociation constant (KD) was calculated as the ratio koff/kon.

[24] = molecular target: T13, recombinant human GITR Fc(kih) (human, UniProt P0DOX5 223-449 = IgG part, biotin on C-terminal Avi tag where used biotinylated); assay: as above
T13 construct: also called hu GITR-Fc; human monomeric GITR-Fc fusion
Protocol: as §6

[25] = molecular target: T14, recombinant murine GITR Fc(kih) (murine, UniProt P0DOX5 223-449 = IgG part, biotin on C-terminal Avi tag); assay: SPR ProteOn XPR36, Fab as analyte
T14 construct: also called mu GITR-Fc
Protocol: as §6

B1: 1G4 P329GLALA IgG1 (antibody, V domains shown)
VH: QVQLVQSGAEVKKPGSSVKVSCKASGGTFSSYAISWVRQAPGQGLEWMGGIIPIFGTANYAQKFQGRVTITADKSTSTAYMELSSLRSEDTAVYYCAREYGSMDYWGQGTTVTVSS
VL: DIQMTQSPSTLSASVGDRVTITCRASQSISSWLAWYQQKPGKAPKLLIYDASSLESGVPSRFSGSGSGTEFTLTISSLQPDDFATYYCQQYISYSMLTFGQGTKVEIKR
notes: anti-OX40
binding result [1]: no binding
EC50 [2]: 48.2 nM
binding result [3]: binds
EC50 of rescuing suboptimal TCR stimulation with plate-immobilized anti-OX40 binder (preactivated human CD4 T cells) [4]: 0.697 nM
EC50 of NFκB activation in HeLa_hOx40_NFκB_luc1 reporter cells with secondary anti-human IgG Fcγ antibody [5]: 3.59 nM
Kd [6]: 250 nM
koff [6]: 0.57 s⁻¹
kon [6]: 2.3e+06 M⁻¹ s⁻¹

B2: 12B3 P329GLALA IgG1 (antibody, V domains shown)
VH: QVQLVQSGAEVKKPGSSVKVSCKASGGTFSSYAISWVRQAPGQGLEWMGGIIPIFGTANYAQKFQGRVTITADKSTSTAYMELSSLRSEDTAVYYCARSEFRFYADFDYWGQGTTVTVSS
VL: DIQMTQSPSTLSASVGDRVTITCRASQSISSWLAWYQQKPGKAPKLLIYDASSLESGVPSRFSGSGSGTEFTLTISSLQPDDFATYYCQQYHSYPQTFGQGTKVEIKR
notes: anti-4-1BB; also called 12B3 IgG; 12B3 huIgG1 P329G LALA
EC50 [7]: 0.4 nM
binding result [8]: no binding
EC50 [9]: 0.95 nM
Kd [10]: 30 nM
koff [10]: 0.001 s⁻¹
kon [10]: 34000 M⁻¹ s⁻¹
EC50 [11]: 1.4 nM
bracketed interval of the EC50 (not explained) [11]: 0.9 to 2.1 nM
binding result [12]: no binding
EC50 of increase of IFNγ secretion in activated CD8+ T cells (surface-immobilized IgG) [13]: 0.07 nM
Kd [14]: 20 nM
koff [14]: 0.00078 s⁻¹
kon [14]: 38000 M⁻¹ s⁻¹
EC50 [15]: 0.47 nM
EC50 [16]: 0.59 nM

B3: 20G2 P329GLALA IgG1 (antibody, V domains shown)
VH: QVQLVQSGAEVKKPGSSVKVSCKASGGTFSSYAISWVRQAPGQGLEWMGGIIPIFGTANYAQKFQGRVTITADKSTSTAYMELSSLRSEDTAVYYCARSYYWESYPFDYWGQGTTVTVSS
VL: DIQMTQSPSTLSASVGDRVTITCRASQSISSWLAWYQQKPGKAPKLLIYDASSLESGVPSRFSGSGSGTEFTLTISSLQPDDFATYYCQQQHSYYTFGQGTKVEIKR
notes: also called anti-mouse 4-1BB clone 20G2 huIgG1 P329G LALA
EC50 [17]: 16.4 nM
binding result [18]: binds
binding result [19]: no binding
Kd [20]: 14 nM
koff [20]: 0.00034 s⁻¹
kon [20]: 24000 M⁻¹ s⁻¹
binding result [21]: no binding
EC50 [22]: 10.1 nM

B4: clone 8A06 purified Fab (Fab, V domains shown)
VH: QVQLVQSGAEVKKPGSSVKVSCKASGGTFSSYAISWVRQAPGQGLEWMGGIIPIFGTANYAQKFQGRVTITADKSTSTAYMELSSLRSEDTAVYYCARGYYAIDYWGQGTTVTVSS
VL: SSELTQDPAVSVALGQTVRITCQGDSLRSYYASWYQQKPGQAPVLVIYGKNNRPSGIPDRFSGSSSGNTASLTITGAQAEDEADYYCNSPQTSGSAVFGGGTKLTVL
notes: bacterially expressed Fab of the lambda-DP88 library with CH1/CL and tags; also called 8A06 (Fab-format)
Kd [23]: 67 nM
Kd [24]: 4.4 nM
binding result [25]: no binding
